Experimental data published in PMC6831737.

Biological target: CAP256 SU gp140 (soluble cleavage-independent HIV-1 subtype C Env gp140 antigen) (HIV-1 subtype C, CAP256 SU virus)
Assay: SEC + native gel or EMSA; GNL affinity-purified protein in PBS pH 7.4, fractionated on Superdex 200 HiLoad 16/600; pooled peaks resolved by BN-PAGE (NativePAGE 3-12% Bis-Tris) and stained with Coomassie

Q: Which stoichiometry N does the source give for “CAP256 SU gp140 (soluble cleavage-independent HIV-1 subtype C Env gp140 antigen) (domain or fragment)” here?
A: Its stoichiometry N is 3.
